According to the DeepSol protein solubility set:

assay: soluble on expression in E. coli; label from the status in PepcDB or PDB records

Sequence | soluble on expression in E. coli
MAENIPLRVQFKRMKAAEWASSDVVLLEGEIGFETDTGFAKFGDGQNTFSKLKYLTGPKGPKGDTGLQGKTGGTGSRGPAGKPGTTDYDQLQNKPDLGAFAQKEETNSKITKLESSKADKNAVYLKAESNAKLDEKLNLKGGVMTGQLQFKPNSGIKPSSSVGGAINIDMSKSEGAAMVMYTNKDTTDGPLMILRSNKDTFDQSVQFVDYKGTTNAVNIVMRQPTTPNFSSALNITSANEGGSAMQIRGVEKALGTLKITHENPSVDKEYDKNAAALSIDIVKKQKGGKGTAAQGIYINSTSGTTGKLLRIRNLNDDKFYVKPDGGFYAKETSQIDGNLKLKDPIANDHAATKAYVDGEVEKLKALLAAKQM | not soluble
AGHMVSCCYRSLAAPDLTLRDLLDIVETSQAHNARAQLTGALFYSQGVFFQWLEGRPAAVAEVMTHIQRDRRHSNVEILAEEPIAKRRFAGWHMQLSCSEADMRSLGLAESRQIVTVGRSL | soluble
MSLSKTYHFIGIKGSGMSALALMLHQMGHKVQGSDVEKYYFTQRGLEQAGITILPFDEKNLDGDMEIIAGNAFRPDNNVEIAYADQNGISYKRYHEFLGSFMRDFVSMGVAGAHGKTSTTGMLSHVLSHITDTSFLIGDGTGRGSANAKYFVFESDEYERHFMPYHPEYSIITNIDFDHPDYFTSLEDVFNAFNDYAKQITKGLFVYGEDAELRKITSDAPIYYYGFEAEGNDFVASDLLRSTTGSTFTVHFRGQNLGQFHIPTFGRHNIMNATAVIGLLYTAGFDLNLVREHLKTFAGVKRRFTEKIVNDTVIIDDFAHHPTEIIATLDAARQKYPSKEIVAVFQPHTFTRTIALLDDFAHALNQADAVYLAQIYGSAREVDHGDVKVEDLANKINKKHQVITVENVSPLLDHDNAVYVFMGAGDIQTYEYSFERLLSNLTSNVQEGHHHHHH | soluble
MSRKIPKEPTTRPAFNAYEKHVRDINNFVIPYQRENKYKKVVGETDLDVLKREYRFIRESEEEDAKSWETRLARRHYERLYKDYAIAELSQWREGSVGFRWLNQTEVLQGKGYSCCAATDCDSASELNTFEVPFTYEEDGETKATLVKVRLCRSCQVKMRESYRIAREKLK | soluble
MMKKMMVLYNETSGSSESKEIAERFKKAAEARGEAVILQPSNPDIDPEEMRKNAKENQVGVLVVIGGDGTIHHAVQNFKDTIRDYQIGIIPGGTVNNFARVLSIPLKEEDAFETILAGQTTPVDFGMVNQDVMISTLTIGLLADTAANVTQQEKQKYGPLAFTKQFFRLLMKKKKYKLKIDGDERRWHGKAQLLTMTMTNSAGGFTNFDANATPDDGEVHIIILPKLVFYKFVYYLPKIIRGQLNEIPGVVYFSGSQFKISGEKDKKVQTRTDGDPTDDLPIKVTVEAGGLNVFVPETSTSTKE | not soluble
MIIVHLCGGLGNQMFQYAAGLAAAHRIGSEVKFDTHWFDATCLHQGLELRRVFGLELPEPSSKDLRKVLGACVHPAVRRLLAGHFLHGLRPKSLVIQPHFHYWTGFEHLPDNVYLEGYWQSERYFSNIADIIRQQFRFVEPLDPHNAALMDEMQSGVSVSLHIRRGDYFNNPQMRRVHGVDLSEYYPAAVATMIEKTNAERFYVFSDDPQWVLEHLKLPVSYTVVDHNRGAASYRDMQLMSACRHHIIANSTFSWWGAWLNPRPDKVVIAPRHWFNVDVFDTRDLYCPGWIVLLEHHHHHH | not soluble
NGQIMYRIVTVQDSTERLESQSALRESEERFRSVVESAPDAIFIQTGGRFAYLNHSAIALFGASKAEEILGRRVADQIHPDYRDLVAERIRLLNERQ | not soluble
MGSDKIHHHHHHLAQLYFYYSSMNAGKSTSLLQSSYNYRERGMNTLVMTASIDDRYGKGKVASRIGIETEAQVFSSQDDLTQMISDVHQATPLSCVLVDECQFLSKEQVKQLTHVVDNIDIPVLCYGLRTDFQGELFSGSHYLLAWADKLVELKTICHCGRKANMVVRLDGDGKVMREGEQVAIGGNESYESVCRKHFREFIWD | not soluble
SRMQRDLSDSTVLRNLGVAFSYSLIAYHSVAKGNDKLQINKSALQKDLSENWEVLAEAIQTVMRRYNEPNAYEQLKELTRGQMIDAENLKKFIKTLSIPEEAKAELMKLTPETYTGLATQLVKAFS | not soluble
SLNVVLIVEDEILEQEFLKTMVLGELSPEDKVLTTESGIQAVQLAKQHRPNIIIMDLMIAEVDGLTAIQDIRKFLPNACITILSAYSDFSYAQKAINLKVFEYLLKPVKPSAFKEIFKKMLEIAHEESMISEPIEKTFLPLQEEHQSFIQESVTYIQEHFKEKLTLEMTASRVFMNPKYFSRVFKKEMGISFTEFIIQLRIQYACRLLETTNYPAYRISSECGFSDPSYFNRVFCAQLNMTPQTYRKNSQAQQHEG | soluble
MGSDKIHHHHHHMTSRTPLVSVLPDFPWDSLASAKAKAASHPDGIVNLSVGTPVDPVAPSIQIALAEAAGFSGYPQTIGTPELRAAIRGALERRYNMTKLVDASLLPVVGTKEAIALLPFALGISGTVVIPEIAYPTYEVAVVAAGCTVLRSDSLFKLGPQIPSMMFINSPSNPTGKVLGIPHLRKVVKWAQENNVILAADECYLGLGWDDENPPISILDPRVCDGDHTNLIAIHSLSKTSNLASYRAGYLVGDPALIGELTEVRKNLGLMVPFPIQQAMIAALNDDDQEAGQKLTYAIRRAKLMRALLESGFQVDNSEAGLYLWATREEPCRDTVDWFAERGILVAPGDFYGPRGAQHVRVAMTETDERVDAFVSRLS | not soluble
MGHHHHHHGGHMSLEEVLEAAEKIRSMEVRGAARIARFAAETLMKFAEKASDEKFDEEMRFAAETLLNTRPTAVSLYNAINYVMRYSGESVEEKRQSVIRRAREFINWVETAQRKIGEIGEKRIKDGYTVMTHCNSSAALSVIKKAHENGKRVEVIATESRPRWQGHLTVKQLREAGIEVTLIVDSAVRYFINEVDCVVVGADTITANGALINKIGTSQIALAAKEARVPFMVAAETYKFSPKTLFGELVVIEERDAREVAPEEILKLGVKVRNPAFDVTPRDYIDVIITEIGAIPPEMAYIVITERLGYAGIEEEEITLNSRHFDEGGS | soluble
MNNQTMTFTPEQLRKHAQEMLRHAEQLEKTGITKDAIRKDMVPALRELMQAKHRAQKAVDELVDCVAELETRVGKFEKLVQEALR | not soluble
MGSDKIHHHHHHMNIHYYLIINEQASSGNGRKVARKVIQQLKQQELKYTALYTDYAGHEKELTKELAETTLLPWSEDLDVSTFPILVVLGGDGTLHNVINSLLPYDSTIPLSYIPCGSGNDFARGVGLSRNIDKALHQILRTRRPKEIQTIHYVEANQEEIGLATNNVGLGLDAAIVEKTNESSSKKALNKFKLGSLSYISSIIHVFFRQKGFPILVEMNGKQYTFNRAFLCTVTNHPYFGGGVSIMPTANPRKAVVDLVVVERINIFKILWLIFLLLRQKQGKSKHFHHFQSSKIRIVSTIPQTIHADGEILGKRSIDMVYTTQKRLFWF | not soluble
GEPPTQKPKKIVNAKKDVVNTKMFEELKSRLDTLSQEVALLKEQQALQTVCLKGTKVHMKCFLAFTQTKTFHEASEDCISRGGTLSTPQTGSENDALYEYLRQSVGNEAEIWLGLNDMAAEGTWVDMTGARIAYKNWETEITAQPDGGKTENCAVLSGAANGKWFDKRCRDQLPYICQFGIV | soluble
MAHHHHHHMGLVDAYDRAATTEIANESLKDVRPDIVHQCLLALFDSDLAYQHRLRVYMSLFVRQGKVIEVSPALRPPRTYARFRGLMSALLRDGRICSTDGQVLMRLMPGSVAPIIPHGAEVVGLTNSLSSPVVTATQLAQQAVAAPVDDSLQGGIKHVTAFYCISCTDDCNLDGIDYITKSVCLSAYPMTAHVQCARVCEGHTRVEPASSVSGSAAGMGVGGGQAKTDRCSAPEPPKRRGEVFPANQAEDNKL | not soluble
MNITKIISKTFDSRLKQIDLYASQASEIQHRVLSRLVNQAAQTEWGKKYDYASIRSYEDFRNRLPIQTYEEIKPYVERLRAGEQNLLWPSEIRWFAKSSGTTNDKSKFLPVSKEALEDIHYRGGKDAAALYFRINPDSHFFSGKGLILGGSHSPNLNSNHSLVGDLSAILIQNVNPLINFIRVPSKKIALMSEWETKIEAIANSTIPVNVTSLSGVPSWMLVLIKRILEKTGKQTLEEVWPNLEVFFHGGVAFTPYREQYKQVIHSKMMHYVETYNASEGYFGTQNDLSDPAMLLMIDYGIFYEFVPLEEVDKENPRAYCLEEVELNKNYAMVISTSCGLWRYMIGDTVKFTNKNPYKFVITGRTKHFINAFGEELIVDNAEKGLAKACAETGAQVCEYSAAPVFMDEHAKCRHQWLIEFAKMPDSVEKFAAILDATLKEVNSDYEAKRWKDIALQPLEVIVARPGLFHDWLARKGKLGGQHKVPRLSNTREYIESMLVLNNELEHHHHHH | not soluble
SLTRLEALKNIPRPAEECVEKTLNGEVPVDLFIARGHPNVRASNKRTLEVTKDVYLTRRGDCIIACCAEKAAGELSATVLEALMRSGLVVLIIDAGVVWDYVIGITPRSKPASKWRLVARKSNYVDDSTIAILADKAAYDLDRTLIRELKRGVPVRIIVGVCPGDSI | not soluble
TKDFNWNTDFIFSNAKNEVTDLKQNANVMELISGNGFAKQGYPVRGLFSIPFVGLDKDGIPVIINEKGEATSTDINFQERQNTGFLKYEGPTDPTITGSLGNMFSYKGFRLNLFITYSFGNVIRLNPVFKAYYSDLTAMTREFKNRWTLPGDEAKTNVPAILSKRMYDSNEDLKYAYNAYNYSTERIAKGDFIRLKEISLAYDFPKAWINPLKLTDLSLKVQATNLFLIYADDKLNGQDPEFFNAGGVASPVPRQFTITLRLGL | not soluble
MGSDKIHHHHHHMTEGSQQKRVVVVGAGWAGLGATYHLAKQGYDVTLLEAGPYPGGLVAGWQTTGGKSVEAGIHGFWYPYRNIFALINELNIHPFTTWTRSAQYSPAGLEVESPIFQDLPRLPTPLGTFIYTQFQRLPLIDRLSALPLLYAVVDFDNSDAAWRRYDSVTARELFKDFGVSARLYKEAFEPMLLVGLFAPGEQCSAAATLGMLYFFILAHQADFDVVWCRGTVGEKIFRPWVERIEKAGAKVLPKHRVTDLIIDSNNQATGVVCGNEVFDADAVIFAVGITGMKKIVSSSPSLQSRAEFRNLHNLGAIDVLATRLWFDRKIDIPRPSNACFGFDNTTGWTFFDLNALHDEYKNELGTVIEADFYHANQFLNWSDAEIVATVQNYLTTCVPGFAQAKVIDSSVIRLPQAVTHFAPGSYPYMLPAKTSFDNVFMSGDWIVNRHGSWSQEKAYVTGLEAANLVVSHLGEGTPVEILPVEADETHIQVARSLNQTVRKLGKFILPNFWLP | not soluble
LLLGDEAIAQAALDAGLSGVYAYPGTPSTEITEYIQMAPITSERNIHNRWCANEKTAMEAALGMSFVGKRALVCMKHVGMNVAADCFINSAITGVKGGLIVVAADDPSMHSSQNEQDSRFYGDFSLIPMYEPSNQQEAYDMVYNGFEFSEKIGEPILMRMVTRLAHSRSGVENKAQKPQNEISFSEDPRQFILLPGNARKRYKVLLTRQEEFIKASEESPYNRYIDGPNKKTGIVACGIGYNYLMENYPEGCEYPVLKVGQYPLPKKQLMQLIDACDEILVLEDGQPFVEKQLKGYLGIGLKVKGRLDGTLSQDGELNPDTVARALGKENSSEFNVPNIVEMRPPALCEGCGHRDMYITLTQVLKEEYPTHKVFSDIGCYTLGANAPFNAINSCVDMGASITMAKGASDGGLHPAVAVIGDSTFTHSGMTGLLDCVNENANVTIVISDNETTAMTGGQDSAGTGRLEAICAGLGVDPAHIRVVVPLK | not soluble
